{"source": "patent US11858993B2", "about": "“Multi-specific antibodies with affinity for human A33 antigen and DOTA metal complex and uses thereof” (Memorial Sloan Kettering Cancer Center, priority 2015, dated 2024)", "key": {"[1]": {"system": "kidney, bone marrow, liver, and spleen", "test": "Toxicity: weight, appearance and anatomic pathology after PRIT", "format": "in vivo", "conditions": "PRIT-treated SW1222 mice, dual-cycle; out to 140 days where stated", "experimental": "For dual-cycle PRIT given at 10 and 17 days post tumor inoculation, there is marked response at all dose levels with complete responses observed in a dose dependent manner. […] Toxicity was determined by monitoring weight and overall appearance at least three times per week, as well as histopathologic assessment of liver, kidney, spleen and bone marrow by MSKCC Lab of Comparative Pathology.\nFor 3/3 mice, the kidney, bone marrow, and liver were normal."}, "[2]": {"biological_target": "T1, Recombinant human A33 protein (Homo sapiens, UniProt Q99795)", "T1 construct": "purchased Novoprotein", "T1 sequence (Q99795 22-319)": "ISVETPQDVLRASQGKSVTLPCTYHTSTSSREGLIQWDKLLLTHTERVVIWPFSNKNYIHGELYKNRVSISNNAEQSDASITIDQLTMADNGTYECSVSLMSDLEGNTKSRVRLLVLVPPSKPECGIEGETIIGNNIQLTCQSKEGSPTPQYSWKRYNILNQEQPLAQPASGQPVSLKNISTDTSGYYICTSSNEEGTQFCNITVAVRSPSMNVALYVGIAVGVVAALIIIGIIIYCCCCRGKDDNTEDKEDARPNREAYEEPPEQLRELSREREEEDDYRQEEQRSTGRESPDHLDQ", "test": "Biacore T100 surface plasmon resonance, binding to human A33 antigen", "conditions": "Biacore T100, bivalent analyte model", "experimental": "Binding affinity was measured by Biacore T100.\nBiacore T100 Biosensor, CM5 sensor chip, and related reagents were purchased from GE Healthcare. Recombinant human A33 protein was purchased from Novoprotein. A BSA-(Y)-DOTA-Bn conjugate was prepared as described (Cheal et al., supra). A33 and DOTA antigens were immobilized using the Amino Coupling kit (GE Healthcare). Purified bispecific antibodies and control antibodies were analyzed, and data were fit to a bivalent analyte model using the Biacore T100 evaluation software as described (Cheal et al., supra)."}, "[3]": {"system": "A33-positive SW1222 xenografts", "test": "Dual-cycle PRIT therapy study", "conditions": "for Complete Response / Cures at 40 d post-treatment / absorbed radiation dose, Blood / absorbed radiation dose, Kidney / absorbed radiation dose, Tumor: Dual-cycle", "text": "In a second therapy study, dual-cycle huA33-C825 PRIT treatment was investigated.\nThe following definitions were used to describe treatment response: a complete response (CR) is defined as tumor shrinkage to <100 mm^3. […] Excessive tumor burden is defined as >2000 mm^3."}, "SW1222 s.c. xenografts": {"system": "SW1222 s.c. xenografts", "test": "Three-cycle theranostic PRIT with nanoSPECT/CT dosimetry", "format": "in vivo, Nude mice", "experimental": "Nude mice bearing established SW1222 s.c. xenografts (n=20; tumor volume=102±40 mm^3; average±standard deviation (SD)) underwent treatment (n=5-10/group) with either: no treatment (n=5), ^177Lu-DOTA-Bn only (n=5), or a three-cycle PRIT regimen consisting of anti-GPA33 PRIT+55 MBq of ^177Lu-DOTA-Bn (n=10; total: 165 MBq). Serial nanoSPECT/CT imaging was conducted on five randomly selected mice undergoing DPRIT up to 160 hours post-injection of the first cycle of ^177Lu-DOTA-Bn for dosimetry calculations."}, "[4]": {"system": "A33-positive SW1222 tumor", "test": "Biodistribution of ^177Lu-activity 2-120 h p.i. following PRIT", "conditions": "2.0 MBq ^177Lu-DOTA-Bn", "experimental": "Briefly, ^177Lu-activity in tumor and various normal tissues determined using a biodistribution assay following PRIT with optimum A33-C825 (0.25 mg/mouse) and dextran-clearing agent doses (25% (w/w), 62.5 μg) and 2.0 MBq (˜10 pmol) of ^177Lu-DOTA-Bn. Groups of SW1222 tumor-bearing mice (n=4 to 5) were given 250 μg of huA33-C825, followed 24 h later with 25% (w/w) (62.5 μg) dextran-clearing agent, and after an additional 4 h, 2.0 MBq (˜10 pmol) of 177Lu-DOTA-Bn. […] was sacrificed at 2, 24, and 120 h p.i. of ^177Lu-DOTA-Bn for biodistribution analysis.\nAll animal experiments were approved by the Institutional Animal Care and Use Committee of Memorial Sloan Kettering Cancer Center and institutional guidelines for the proper and humane use of animals in research were followed. Athymic nu/nu female mice (6-8 weeks old; Harlan Sprague Dawley) were allowed to acclimate in the vivarium for at least one week. […] All reagents were given intravenously (i.v.) via the lateral tail vein. […] In addition, huA33-C825 was trace radiolabeled with I-131 to estimate tumor uptake during PRIT. […] (Lindmo, T. et al., 1990, J. Immunol. Meth. 126(2):183-189). For PRIT with non-specific IgG-C825, an equivalent mg dose of a GD2-targeted bispecific antibody (hu3F8-C825) was used in place of huA33-C825. For ex vivo biodistribution analysis, mice were euthanized by CO2(g) asphyxiation, and tumor and selected organs were harvested, rinsed with water and allowed to air-dry, weighed and radioassayed by gamma scintillation counting (Perkin Elmer Wallac Wizard 3″). Count rates were background and decay corrected, converted to activities using a system calibration factor, normalized to the administered activity, and expressed as percent injected dose per gram (% ID/g). Differences in ^177Lu-activity concentration in tumor and various tissues were analyzed by Student's unpaired t test when appropriate. […]"}, "[5]": {"conditions": "dual-cycle PRIT, 66.6 or 111 MBq ^177Lu-DOTA-Bn pooled"}, "[6]": {"conditions": "two cycles of PRIT+55.5 (total 111.0 MBq)"}, "[7]": {"conditions": "Triple-cycle, + 55.5 MBq (×3), 165.0 MBq"}}, "note": "“And” between values parts separate entries of the source, which are not always exact repeats. Identical values can stand only once. “Also recorded” adds a separate entry of the source.", "data": [{"substance": "huA33-C825: bispecific antibody: humanized A33 IgG1 with murine C825 anti-DOTA-Bn scFv linked to the light chain C-terminus", "values": [{"measurement": "toxicity (clinical, histologic)", "setting": "[1]", "value": "no clinical or histologic evidence of radiation induced toxicities; also recorded: no toxicity was observed; also recorded: no detectable toxicity"}, {"measurement": "koff", "setting": "[2]", "value": 0.00581, "unit": "s⁻¹"}, {"measurement": "kon", "setting": "[2]", "value": 91500, "unit": "M⁻¹ s⁻¹"}, {"measurement": "Complete Response", "setting": "[3]; + 11.1 MBq (×2), 22.2 MBq", "value": "2/5"}, {"measurement": "Cures at 40 d post-treatment", "setting": "[3]; + 11.1 MBq (×2), 22.2 MBq", "value": "1/5"}, {"measurement": "absorbed radiation dose, Blood", "setting": "[3]; + 11.1 MBq (×2), 22.2 MBq", "value": 0.2, "unit": "Gy"}, {"measurement": "absorbed radiation dose, Kidney", "setting": "[3]; + 11.1 MBq (×2), 22.2 MBq", "value": 1.2, "unit": "Gy"}, {"measurement": "absorbed radiation dose, Tumor", "setting": "[3]; + 11.1 MBq (×2), 22.2 MBq", "value": 14.6, "unit": "Gy"}, {"measurement": "Complete Response", "setting": "[3]; + 33.3 MBq (×2), 66.6 MBq", "value": "5/5"}, {"measurement": "Cures at 40 d post-treatment", "setting": "[3]; + 33.3 MBq (×2), 66.6 MBq", "value": "2/5"}, {"measurement": "absorbed radiation dose, Blood", "setting": "[3]; + 33.3 MBq (×2), 66.6 MBq", "value": 0.6, "unit": "Gy"}, {"measurement": "absorbed radiation dose, Kidney", "setting": "[3]; + 33.3 MBq (×2), 66.6 MBq", "value": 3.5, "unit": "Gy"}, {"measurement": "absorbed radiation dose, Tumor", "setting": "[3]; + 33.3 MBq (×2), 66.6 MBq", "value": 43.8, "unit": "Gy"}, {"measurement": "Complete Response", "setting": "[3]; + 55.5 MBq (×2), 111.0 MBq", "value": "4/4"}, {"measurement": "Cures at 40 d post-treatment", "setting": "[3]; + 55.5 MBq (×2), 111.0 MBq", "value": "2/4"}, {"measurement": "absorbed radiation dose, Blood", "setting": "[3]; + 55.5 MBq (×2), 111.0 MBq", "value": 1.0, "unit": "Gy"}, {"measurement": "absorbed radiation dose, Kidney", "setting": "[3]; + 55.5 MBq (×2), 111.0 MBq", "value": 5.9, "unit": "Gy"}, {"measurement": "absorbed radiation dose, Tumor", "setting": "[3]; + 55.5 MBq (×2), 111.0 MBq", "value": 73.0, "unit": "Gy"}, {"measurement": "alive without recurrence at more than 140 d", "setting": "[3]; [5]", "value": "2/9"}, {"measurement": "complete responses", "setting": "[3]; [5]", "value": "9/9"}, {"measurement": "complete response, share of test subjects", "setting": "[3]; dual-cycle dosing", "value": "approximately 80%"}, {"measurement": "time to reach 500 mm^3 in recurrent tumors (individual mice)", "setting": "[3]; [6]", "value": "34 days and 45 days and 42 days"}, {"measurement": "tumor size at time of sacrifice (single mouse)", "setting": "[3]; [6]", "value": 44, "unit": "mm^3"}, {"measurement": "mice cured", "setting": "SW1222 s.c. xenografts; 3 cycle dosing regimen", "value": "10/10"}, {"measurement": "Complete Response", "setting": "SW1222 s.c. xenografts; [7]", "value": "10/10"}, {"measurement": "Cures at 40 d post-treatment", "setting": "SW1222 s.c. xenografts; [7]", "value": "10/10"}, {"measurement": "histopathologic findings of kidney, liver, spleen, and bone/marrow", "setting": "SW1222 s.c. xenografts; mouse, in vivo", "value": "no remarkable histopathologic findings"}, {"measurement": "radiation dose to blood", "setting": "SW1222 s.c. xenografts; mouse, in vivo", "value": 150, "unit": "rads"}, {"measurement": "radiation dose to kidney", "setting": "SW1222 s.c. xenografts; mouse, in vivo", "value": 875, "unit": "rads"}, {"measurement": "toxicity", "setting": "SW1222 s.c. xenografts; three-cycle PRIT (total 165 MBq)", "value": "without detectable toxicity; also recorded: no obvious toxicities"}, {"measurement": "tumor-free survival at 100 days", "setting": "SW1222 s.c. xenografts; three-cycle PRIT, 55 MBq/cycle (total 165 MBq)", "value": "all treated animals"}, {"measurement": "Tumor-to-tissue ratio, Kidneys", "setting": "[4]; 2 hr p.i. (n = 5)", "value": "8.1 ± 1.7"}, {"measurement": "Tumor-to-tissue ratio, Kidneys", "setting": "[4]; 24 hr p.i. (n = 4)", "value": "18.3 ± 13.4"}, {"measurement": "Tumor-to-tissue ratio, Kidneys", "setting": "[4]; 120 hr p.i. (n = 5)", "value": "14.8 ± 4.9"}]}]}
